{
  "source": "patent US20250109201A1",
  "about": "(AGENUS, published 2025)",
  "binders": {"B1": {"name": "15G8 (Reference antibody) (antibody, V domains shown)", "VH": "DVQLQGSGPGLVKPSETLSLTCSVTGYSITSGYYWNWIRQFPGKKLEWMGYISYDGSNNYNPSLKNRITISRDTSKNQFSLKLNSVTAADTATYYCAHGYSYYYAMDAWGQGTSVTVSS", "VL": "DIQMTQSPSSLSASVGDRVTITCRTSQDISNYLNWYQQKPGKAVKLLISYTSRLHSGVPSRFSGSGSGTDYTLTISSLQPEDFATYYCQQGNTLPTFGQGTKLEIK"}},
  "key": {"[1]": {"target": "full-length ILT2 expressed on Jurkat cells (human, UniProt Q8NHL6 24-650)", "sequence (Q8NHL6 24-650)": "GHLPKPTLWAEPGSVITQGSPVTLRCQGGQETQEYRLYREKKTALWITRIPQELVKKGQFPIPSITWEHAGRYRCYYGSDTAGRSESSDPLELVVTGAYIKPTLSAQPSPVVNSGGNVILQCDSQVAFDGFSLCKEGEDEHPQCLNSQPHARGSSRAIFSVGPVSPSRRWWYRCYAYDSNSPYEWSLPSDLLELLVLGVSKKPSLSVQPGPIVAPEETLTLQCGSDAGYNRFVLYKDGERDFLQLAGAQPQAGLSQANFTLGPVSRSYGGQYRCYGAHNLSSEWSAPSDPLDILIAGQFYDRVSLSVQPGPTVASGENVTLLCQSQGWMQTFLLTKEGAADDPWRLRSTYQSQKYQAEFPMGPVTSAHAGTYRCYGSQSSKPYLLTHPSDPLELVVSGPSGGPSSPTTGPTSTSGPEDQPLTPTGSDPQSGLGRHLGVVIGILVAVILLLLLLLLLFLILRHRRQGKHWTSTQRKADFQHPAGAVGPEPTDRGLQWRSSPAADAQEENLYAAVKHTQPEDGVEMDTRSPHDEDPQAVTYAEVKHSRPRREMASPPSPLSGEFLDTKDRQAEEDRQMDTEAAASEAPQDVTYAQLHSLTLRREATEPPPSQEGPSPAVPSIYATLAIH", "assay": "cell-based or functional assay"}, "[2]": {"target": "T1, human ILT2 extracellular and transmembrane domains expressed on CHO cells (human, UniProt Q8NHL6 24-482, limits assumed)", "T1 construct": "domain: extracellular and transmembrane domains; which one is told under assay; also called CHO cells expressing human ILT2 (relatively low or relatively high level); CHO-ILT2 cells", "T1 sequence (Q8NHL6 24-482 limits assumed)": "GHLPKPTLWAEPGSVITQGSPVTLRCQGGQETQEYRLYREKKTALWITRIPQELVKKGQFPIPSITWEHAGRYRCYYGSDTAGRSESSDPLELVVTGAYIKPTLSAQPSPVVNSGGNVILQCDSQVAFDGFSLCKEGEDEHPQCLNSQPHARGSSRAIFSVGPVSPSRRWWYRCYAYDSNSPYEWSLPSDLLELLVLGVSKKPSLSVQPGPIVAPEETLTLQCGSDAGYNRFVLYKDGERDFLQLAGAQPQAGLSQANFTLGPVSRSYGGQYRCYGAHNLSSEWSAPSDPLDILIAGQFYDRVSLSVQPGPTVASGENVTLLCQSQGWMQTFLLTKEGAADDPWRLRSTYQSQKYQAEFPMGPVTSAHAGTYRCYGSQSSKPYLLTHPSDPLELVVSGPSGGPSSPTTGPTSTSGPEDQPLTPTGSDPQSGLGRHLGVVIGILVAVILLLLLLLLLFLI", "assay": "flow cytometry, CHO cells with high human ILT2", "experimental": "(§1) CHO cells expressing relatively high and low levels of human ILT2 were seeded in a 96-well U-bottom tissue culture plate at a density of 2×10⁵ cells per well in 50 μL of PBS supplemented with 0.5% BSA, 1 mM EDTA and 0.05% sodium azide (FACS Buffer). The cells were incubated for 30 minutes at 4° C. with 50 μL of a series dilution of anti-ILT2 antibodies or isotype control (VRC01 IgG₄) at concentrations from 10 μg/mL to 0.2 ng/mL in FACS Buffer.\n(§2) For antibody staining, the cells were washed three times with cold FACS Buffer and resuspended in FACS Buffer containing a FITC-conjugated mouse anti-human IgG₄ antibody (Southern Biotech/9190-02) at a final concentration of […]. After a 30-minute incubation in the dark at 4° C., the cells were washed three times and analyzed as above."}, "[3]": {"target": "T2, recombinant human LILRB5/LIR-8 (Sino Biological 17221-H08H-100) (human, UniProt O75023 24-458)", "T2 construct": "Bought", "T2 sequence (O75023 24-458 limits assumed)": "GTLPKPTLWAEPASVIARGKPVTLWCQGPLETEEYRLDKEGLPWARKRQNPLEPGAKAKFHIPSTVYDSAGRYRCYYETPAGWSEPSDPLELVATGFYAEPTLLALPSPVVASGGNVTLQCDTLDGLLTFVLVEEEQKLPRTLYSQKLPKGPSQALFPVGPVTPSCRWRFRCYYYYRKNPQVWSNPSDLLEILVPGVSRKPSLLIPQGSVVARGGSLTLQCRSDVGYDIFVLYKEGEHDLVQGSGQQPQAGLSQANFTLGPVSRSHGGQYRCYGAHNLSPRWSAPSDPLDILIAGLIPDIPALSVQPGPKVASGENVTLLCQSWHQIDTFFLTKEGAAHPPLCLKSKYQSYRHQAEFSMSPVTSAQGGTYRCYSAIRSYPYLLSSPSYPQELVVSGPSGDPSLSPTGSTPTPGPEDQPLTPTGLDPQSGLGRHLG", "assay": "SPR", "excerpt": "(§3) Irrelevant antibody VRC01 IgG1 N297A was used as a negative isotype control."}, "[4]": {"target": "T3, recombinant human LILRA6/ILT8 (Sino Biological 29813-H08H-50) (human, UniProt Q6PI73 24-447)", "T3 construct": "Bought", "T3 sequence (Q6PI73 24-447 limits assumed)": "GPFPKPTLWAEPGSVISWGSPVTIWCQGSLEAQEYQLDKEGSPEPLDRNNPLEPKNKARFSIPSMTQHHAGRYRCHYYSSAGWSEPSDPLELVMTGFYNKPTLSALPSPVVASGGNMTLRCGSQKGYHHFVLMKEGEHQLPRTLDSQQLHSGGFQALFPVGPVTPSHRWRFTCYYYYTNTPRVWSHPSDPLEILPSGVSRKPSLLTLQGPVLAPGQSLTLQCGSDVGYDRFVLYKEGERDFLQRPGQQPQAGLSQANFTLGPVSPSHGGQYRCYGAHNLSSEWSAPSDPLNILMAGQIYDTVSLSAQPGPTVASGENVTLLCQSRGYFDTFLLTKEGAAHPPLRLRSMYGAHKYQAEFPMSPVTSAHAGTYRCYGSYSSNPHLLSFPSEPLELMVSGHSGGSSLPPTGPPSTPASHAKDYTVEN", "assay": "SPR", "excerpt": "as §3"}, "[5]": {"target": "T4, recombinant human LILRA4/ILT7 (Sino Biological 16058-H08H-50) (human, UniProt P59901 24-446)", "T4 construct": "Bought", "T4 sequence (P59901 24-446 limits assumed)": "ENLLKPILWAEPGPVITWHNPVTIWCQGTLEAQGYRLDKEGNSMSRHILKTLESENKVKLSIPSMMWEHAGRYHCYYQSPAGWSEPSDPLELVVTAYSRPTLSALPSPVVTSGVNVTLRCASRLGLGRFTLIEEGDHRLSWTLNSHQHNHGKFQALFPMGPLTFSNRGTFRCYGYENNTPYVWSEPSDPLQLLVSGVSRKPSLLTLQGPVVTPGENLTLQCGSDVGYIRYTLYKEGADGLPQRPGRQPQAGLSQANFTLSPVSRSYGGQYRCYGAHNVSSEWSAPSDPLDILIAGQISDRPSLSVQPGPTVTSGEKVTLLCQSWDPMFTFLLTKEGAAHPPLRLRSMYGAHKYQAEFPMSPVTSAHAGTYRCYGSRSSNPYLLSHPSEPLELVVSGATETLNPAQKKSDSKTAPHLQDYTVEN", "assay": "SPR", "excerpt": "as §3"}, "[6]": {"target": "T5, recombinant human LILRB4/ILT3 (Sino Biological 16742-H08H) (human, UniProt Q8NHJ6 22-259)", "T5 construct": "Bought", "assay": "SPR", "excerpt": "as §3"}, "[7]": {"target": "T6, recombinant human LILRA2/ILT1 (R&D Systems 9040-T4-050) (human, UniProt Q8N149 24-449)", "T6 construct": "Bought", "T6 sequence (Q8N149 24-449 limits assumed)": "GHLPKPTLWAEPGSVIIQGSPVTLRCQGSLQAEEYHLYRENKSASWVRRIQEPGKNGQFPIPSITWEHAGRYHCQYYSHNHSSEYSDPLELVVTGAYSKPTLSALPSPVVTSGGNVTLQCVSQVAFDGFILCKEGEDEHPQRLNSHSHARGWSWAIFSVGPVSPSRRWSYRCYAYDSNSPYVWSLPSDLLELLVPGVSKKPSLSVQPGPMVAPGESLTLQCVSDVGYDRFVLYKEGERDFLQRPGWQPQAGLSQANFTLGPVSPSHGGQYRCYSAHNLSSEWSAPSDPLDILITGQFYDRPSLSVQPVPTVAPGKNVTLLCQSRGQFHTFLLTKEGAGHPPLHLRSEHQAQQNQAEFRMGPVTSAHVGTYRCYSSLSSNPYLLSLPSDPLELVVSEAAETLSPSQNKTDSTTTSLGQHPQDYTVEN", "assay": "SPR", "excerpt": "as §3"}, "[8]": {"target": "T7, recombinant human LILRA5/ILT11 (Sino Biological 16059-H08H-100) (human, UniProt A6NI73 42-268)", "T7 construct": "Bought", "T7 sequence (A6NI73 42-268 limits assumed)": "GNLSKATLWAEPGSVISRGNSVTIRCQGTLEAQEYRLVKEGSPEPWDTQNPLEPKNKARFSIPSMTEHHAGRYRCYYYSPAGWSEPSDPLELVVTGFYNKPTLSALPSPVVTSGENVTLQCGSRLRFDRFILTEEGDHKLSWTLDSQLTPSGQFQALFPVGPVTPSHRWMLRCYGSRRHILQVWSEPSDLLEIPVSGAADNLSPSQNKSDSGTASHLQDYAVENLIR", "assay": "SPR", "excerpt": "as §3"}, "[9]": {"target": "T8, recombinant human LILRB3/ILT5 (R&D Systems 9159-T5-050) (human, UniProt O75022 24-443)", "T8 construct": "Bought", "assay": "SPR", "excerpt": "as §3"}, "[10]": {"target": "T1, human ILT2 extracellular and …", "assay": "flow cytometry, CHO cells with low human ILT2", "experimental": "as §1, §2"}, "[11]": {"target": "T9, recombinant human LILRA1/LIR-6 (Sino Biological 17220-H08H-100) (human, UniProt O75019 17-461)", "T9 construct": "Bought", "T9 sequence (O75019 17-461 limits assumed)": "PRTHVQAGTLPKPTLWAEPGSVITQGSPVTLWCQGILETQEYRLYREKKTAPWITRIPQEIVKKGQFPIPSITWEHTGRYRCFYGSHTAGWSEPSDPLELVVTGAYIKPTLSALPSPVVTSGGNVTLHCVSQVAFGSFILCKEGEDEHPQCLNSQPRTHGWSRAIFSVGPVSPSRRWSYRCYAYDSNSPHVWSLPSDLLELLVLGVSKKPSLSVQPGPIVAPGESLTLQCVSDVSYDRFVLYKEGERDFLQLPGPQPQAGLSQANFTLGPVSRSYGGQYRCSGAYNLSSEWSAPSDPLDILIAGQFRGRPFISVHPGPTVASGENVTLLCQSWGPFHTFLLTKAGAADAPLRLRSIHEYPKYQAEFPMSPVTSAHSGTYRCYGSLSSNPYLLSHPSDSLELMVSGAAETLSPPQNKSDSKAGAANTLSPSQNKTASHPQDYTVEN", "assay": "SPR, LILRA and LILRB family panel", "excerpt": "as §3"}, "[12]": {"target": "T10, recombinant human LILRA3/ILT6 (Sino Biological 13549-H08H-100) (human, UniProt Q8N6C8 24-439)", "T10 construct": "Bought", "T10 sequence (Q8N6C8 24-439 limits assumed)": "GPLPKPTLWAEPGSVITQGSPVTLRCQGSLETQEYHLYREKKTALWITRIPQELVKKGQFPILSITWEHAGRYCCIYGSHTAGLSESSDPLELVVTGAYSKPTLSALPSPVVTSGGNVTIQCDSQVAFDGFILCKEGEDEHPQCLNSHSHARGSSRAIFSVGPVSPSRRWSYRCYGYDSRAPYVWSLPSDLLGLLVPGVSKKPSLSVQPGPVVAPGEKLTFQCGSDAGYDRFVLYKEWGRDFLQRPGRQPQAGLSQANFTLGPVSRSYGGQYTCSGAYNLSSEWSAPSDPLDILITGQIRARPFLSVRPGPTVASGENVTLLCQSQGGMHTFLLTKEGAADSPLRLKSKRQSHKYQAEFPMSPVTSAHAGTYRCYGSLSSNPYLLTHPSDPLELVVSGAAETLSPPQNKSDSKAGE", "assay": "SPR, LILRA and LILRB family panel", "excerpt": "as §3"}, "[13]": {"target": "T11, ECD-His tagged human ILT2 haplotype PE01 (human, UniProt Q8NHL6 24-458)", "T11 construct": "also called Human ILT2 PE01 ECD; LILRB1/ILT2 PE01; not shown: His tag", "T11 sequence (Q8NHL6 24-458)": "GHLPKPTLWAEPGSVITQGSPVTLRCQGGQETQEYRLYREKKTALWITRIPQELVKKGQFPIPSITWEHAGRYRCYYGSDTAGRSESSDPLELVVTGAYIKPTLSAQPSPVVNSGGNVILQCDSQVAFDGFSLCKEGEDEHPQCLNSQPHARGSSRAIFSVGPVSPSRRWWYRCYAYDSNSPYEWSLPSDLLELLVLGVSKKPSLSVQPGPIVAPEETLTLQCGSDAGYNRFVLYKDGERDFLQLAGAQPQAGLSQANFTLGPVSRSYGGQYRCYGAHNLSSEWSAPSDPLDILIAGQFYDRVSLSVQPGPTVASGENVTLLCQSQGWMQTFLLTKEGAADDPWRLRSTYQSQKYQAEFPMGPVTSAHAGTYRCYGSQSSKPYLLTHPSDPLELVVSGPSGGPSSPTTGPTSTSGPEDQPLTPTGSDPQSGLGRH", "assay": "SPR, LILRA and LILRB family panel", "excerpt": "as §3"}},
  "data": [
    {"binder": "B1", "values": [
      {"measurement": "FcγRIIIa-NFAT luciferase signaling, EC50", "setting": "[1]", "result": 0.43, "unit": "µg/mL"},
      {"measurement": "EC50", "setting": "[2]", "result": 0.155, "unit": "µg/mL"},
      {"measurement": "binding result", "setting": "[3]", "result": "no binding"},
      {"measurement": "binding result", "setting": "[4]", "result": "no binding"},
      {"measurement": "binding result", "setting": "[5]", "result": "no binding"},
      {"measurement": "binding result", "setting": "[6]", "result": "no binding"},
      {"measurement": "binding result", "setting": "[7]", "result": "no binding"},
      {"measurement": "binding result", "setting": "[8]", "result": "no binding"},
      {"measurement": "binding result", "setting": "[9]", "result": "no binding"},
      {"measurement": "EC50", "setting": "[10]", "result": 0.019, "unit": "µg/mL"},
      {"measurement": "Kd", "setting": "[11]", "result": 21, "unit": "nM"},
      {"measurement": "Kd", "setting": "[12]", "result": 24, "unit": "nM"},
      {"measurement": "Kd", "setting": "[13]", "result": 10, "unit": "nM"}
    ]}
  ]
}
